Data on nine molecules can be found in patent publication US20030104423A1 (WISCONSIN ALUMNI RESEARCH FOUNDATION, published 2003).

The target of test [1] is T1, HMK-His6-σ70, 32P-labeled (pHMK-His6-σ70) (Escherichia coli, UniProt P00579 1-613).
T1 construct: range 1-613; also called ^32P-labeled ?^70; HMK-?^70
Description: ordered fragment ladder far-Western, 32P-σ70 probe.

The target of test [2] is T1, HMK-His6-σ70, 32P-labeled …. Briefly: far-Western of whole cell lysate, 32P-σ70 probe.
The target in test [3] is T2, β′ 1-1407 wild type with C-terminal His6 (pTA577) (Escherichia coli, UniProt P0A8T7 1-1407).
T2 construct: range 1-1407; also called wt; wild type β′
Description: Assembly Eσ32 holo: co-purification with His6-β′ from cells, Western blot; grade. Background: A western blot detects proteins with antibodies after separation by electrophoresis.
Description: (§1) The cultures were grown at 37° C. with shaking until the A₆₀₀=0.4 for log phase assays and 2 hours longer (A₆₀₀ about 2.0) for the early stationary phase assays. The cells were harvested by centrifugation at 6,000 rpm for 10 minutes and stored at −20° C. until use. The cell pellets were resuspended in 5 ml TE (10 mM Tris-HCl, pH 7.9 and 0.1 mM EDTA) plus 0.15 M NaCl and lysozyme (0.1 mg/ml) then incubated on ice for 15 minutes. The cells were sonicated 2×30 seconds and centrifuged for 25 minutes at 27,000× g to pellet the insoluble material. […] The column was washed with 15 ml TE plus 0.15 M NaCl followed by a second wash with 10 ml TE plus 0.5 M NaCl. The protein was eluted from the column with 4 ml TE plus 0.7 M NaCl and 30% propylene glycol. The eluted sample (4 ml) was diluted with 6 ml buffer B (20 mM Tris-HCl, pH 7.9, 500 mM NaCl, 5 mM imidazole, 0.1% (v/v) Tween 20, and 10% (v/v) glycerol) and loaded (2×) onto 500 μl of Ni²⁺-NTA resin. The resin was washed (2×) with 5 ml of buffer B and eluted with 0.5 ml buffer B plus 0.25 M imidazole. Samples from the elution fractions were assayed by Western blot as described above using Mabs to each subunit or a factor. The secondary antibodies were horseradish peroxidase-labeled goat antimouse IgG antibodies and the signal was generated using the ECL+ substrate system (Amersham) and detected using the STORM FluoroImager and quantitated with IMAGEQUANT software (Molecular Dynamics).

Test [4] deals with T3, β′ 1-1407 N266D with C-terminal His6 (pTA600) (Escherichia coli, UniProt P0A8T7 1-1407).
T3 construct: range 1-1407
The description is as above.
Description: as §1

Test [5] concerns the target T4, β′ 1-1407 Y269A with C-terminal His6 (pTA601) (Escherichia coli, UniProt P0A8T7 1-1407).
T4 construct: range 1-1407
Described as above.
Description: as §1

Test [6] has as its target T5, β′ 1-1407 R275Q with C-terminal His6 (pTA602) (Escherichia coli, UniProt P0A8T7 1-1407).
T5 construct: range 1-1407
Described as above.
Description: as §1

Test [7] addresses T6, β′ 1-1407 K280E with C-terminal His6 (pTA603) (Escherichia coli, UniProt P0A8T7 1-1407).
T6 construct: range 1-1407
The description is as above.
Description: as §1

In test [8] the target is T7, β′ 1-1407 R293Q with C-terminal His6 (pTA604) (Escherichia coli, UniProt P0A8T7 1-1407).
T7 construct: range 1-1407
Described as above.
Description: as §1

Test [9] concerns the target T8, β′ 1-1407 E295K with C-terminal His6 (pTA605) (Escherichia coli, UniProt P0A8T7 1-1407).
T8 construct: range 1-1407
The description is as above.
Description: as §1

Test [10] deals with T9, β′ 1-1407 R297S with C-terminal His6 (pTA606) (Escherichia coli, UniProt P0A8T7 1-1407).
T9 construct: range 1-1407
Described as above.
Description: as §1

Test [11] concerns the target T10, β′ 1-1407 Q300E with C-terminal His6 (pTA607) (Escherichia coli, UniProt P0A8T7 1-1407).
T10 construct: range 1-1407
Described as above.
Description: as §1

Test [12] concerns the target T11, β′ 1-1407 A302D with C-terminal His6 (pTA608) (Escherichia coli, UniProt P0A8T7 1-1407).
T11 construct: range 1-1407
The description is as above.
Description: as §1

Test [13] concerns the target T12, β′ 1-1407 N309D with C-terminal His6 (pTA609) (Escherichia coli, UniProt P0A8T7 1-1407).
T12 construct: range 1-1407
The test is described as above.
Description: as §1

In test [14] the target is T2, β′ 1-1407 wild type with C-terminal …. Description: co-purification with His6-β′ from cells, Western blot.
Test [15] has as its target T9, β′ 1-1407 R297S with C-terminal His6 …. The test is described as above.
Test [16] addresses T10, β′ 1-1407 Q300E with C-terminal His6 …. Described as above.
The target of test [17] is T1, HMK-His6-σ70, 32P-labeled …. Description: far-Western of β′1-319 in cell extract, normalized to Western.
For test [18], the target named is T13, σ70 (C132S, C291S, C295S, S442C), labeled with Eu-DTPA-AMCA (pSigma70(442C)) (Escherichia coli, UniProt P00579 1-613).
T13 construct: also called labeled ?^70
Briefly: electrophoretic mobility shift (EMS) assay, native gel.

Test [19] has as its target T13, σ70 (C132S, C291S, C295S, S442C), …. Briefly: EMS assay, competition with labeled β′-fragment.
Test [20] concerns the target T14, σ70, native, untagged (pLN12) (Escherichia coli, UniProt P00579 1-613).
T14 construct: range 1-613; also called native ?^70
Description: mixed with σ70 and passed over Ni-NTA (control).

For test [21], the target named is T14, σ70, native, untagged (pLN12). Briefly: Ni-NTA co-immobilization, SDS-PAGE.
Another test concerns the target T15, Bovine serum albumin (bovine, UniProt P02769 25-607).
T15 construct: also called BSA
Description: Ni-NTA co-immobilization, SDS-PAGE.

T15 sequence (P02769 25-607 limits assumed): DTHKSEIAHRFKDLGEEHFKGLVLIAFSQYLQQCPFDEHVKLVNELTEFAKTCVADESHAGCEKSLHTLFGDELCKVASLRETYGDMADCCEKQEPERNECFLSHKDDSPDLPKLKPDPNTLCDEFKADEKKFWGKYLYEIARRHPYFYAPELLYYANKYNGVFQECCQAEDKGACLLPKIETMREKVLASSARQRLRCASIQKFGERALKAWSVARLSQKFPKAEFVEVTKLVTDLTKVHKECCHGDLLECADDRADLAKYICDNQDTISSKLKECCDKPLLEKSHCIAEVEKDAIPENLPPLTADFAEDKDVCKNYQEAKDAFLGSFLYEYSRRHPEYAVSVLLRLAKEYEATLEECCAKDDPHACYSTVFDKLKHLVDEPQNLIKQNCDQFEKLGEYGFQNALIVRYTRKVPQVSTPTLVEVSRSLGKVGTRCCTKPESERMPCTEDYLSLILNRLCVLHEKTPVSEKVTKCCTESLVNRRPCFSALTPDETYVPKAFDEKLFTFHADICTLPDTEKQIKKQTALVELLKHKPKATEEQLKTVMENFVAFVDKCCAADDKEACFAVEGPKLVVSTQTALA

B1: N-terminally His6-tagged β′ 1-309, hydroxylamine cleavage fragment (from pTA499) (enzyme)
chain: HHHHHHMKDLLKFLKAQTKTEEFDAIKIALASPDMIRSWSFGEVKKPETINYRTFKPERDGLFCARIFGPVKDYECLCGKYKRLKHRGVICEKCGVEVTQTKVRRERMGHIELASPTAHIWFLKSLPSRIGLLLDMPLRDIERVLYFESYVVIEGGMTNLERQQILTEEQYLDALEEFGDEFDAKMGAEAIQALLKSMDLEQECEQLREELNETNSETKRKKLTKRIKLLEAFVQSGNKPEWMILTVLPVLPPDLRPLVPLDGGRFATSDLNDLYRRVINRNNRLKRLLDLAAPDIIVRNEKRMLQEAVDALLDN
For B1, the binding result in test [1] is given as “binds”.

B2: β′100-309, untagged (pTA530) (enzyme)
chain: ERMGHIELASPTAHIWFLKSLPSRIGLLLDMPLRDIERVLYFESYVVIEGGMTNLERQQILTEEQYLDALEEFGDEFDAKMGAEAIQALLKSMDLEQECEQLREELNETNSETKRKKLTKRIKLLEAFVQSGNKPEWMILTVLPVLPPDLRPLVPLDGGRFATSDLNDLYRRVINRNNRLKRLLDLAAPDIIVRNEKRMLQEAVDALLDN
In the case of B2, the binding result in test [2] is “binds”.

B3: σ32 of E. coli (the cell's own) (other)
chain: MTDKMQSLALAPVGNLDSYIRAANAWPMLSADEERALAEKLHYHGDLEAAKTLILSHLRFVVHIARNYAGYGLPQADLIQEGNIGLMKAVRRFNPEVGVRLVSFAVHWIKAEIHEYVLRNWRIVKVATTKAQRKLFFNLRKTKQRLGWFNQDEVEMVARELGVTSKDVREMESRMAAQDMTFDLSSDDDSDSQPMAPVLYLQDKSSNFADGIEDDNWEEQAANRLTDAMQGLDERSQDIIRARWLDEDNKSTLQELADRYGVSAERVRQLEKNAMKKLRAAIEA
notes: also called E?32
For B3, the binding result is “binds” in [3]; “no binding” in test [4]; “binds” in test [5]; “no binding” in [6]; “binds” in test [7]; “binds” in [8]. In addition, the binding result is given as “no binding” in [9]; “binds” in [10]; “binds” in test [11]; “no binding” in [12]; “binds” in [13].

B4: σF of E. coli (the cell's own) (other)
chain: MNSLYTAEGVMDKHSLWQRYVPLVRHEALRLQVRLPASVELDDLLQAGGIGLLNAVERYDALQGTAFTTYAVQRIRGAMLDELRSRDWVPRSVRRNAREVAQAIGQLEQELGRNATETEVAERLGIDIADYRQMLLDTNNSQLFSYDEWREEHGDSIELVTDDHQRENPLQQLLDSNLRQRVMEAIETLPEREKLVLTLYYQEELNLKEIGAVLEVGESRVSQLHSQAIKRLRTKLGKL
For B4, the binding result in [14], in [15] and in [16] was “binds” in each case.

B5: β′1-319 Q300E (pTA617) (enzyme)
chain: MKDLLKFLKAQTKTEEFDAIKIALASPDMIRSWSFGEVKKPETINYRTFKPERDGLFCARIFGPVKDYECLCGKYKRLKHRGVICEKCGVEVTQTKVRRERMGHIELASPTAHIWFLKSLPSRIGLLLDMPLRDIERVLYFESYVVIEGGMTNLERQQILTEEQYLDALEEFGDEFDAKMGAEAIQALLKSMDLEQECEQLREELNETNSETKRKKLTKRIKLLEAFVQSGNKPEWMILTVLPVLPPDLRPLVPLDGGRFATSDLNDLYRRVINRNNRLKRLLDLAAPDIIVRNEKRMLEEAVDALLDNGRRGRAITGS
On to B5, for which, in [17], the “relative binding against wild type β′1-319” value was over 7 fold.

B6: HMK-His6-β′(100-309), IC5-labeled (pTA133) (enzyme)
chain: MARRASVHHHHHHMERMGHIELASPTAHIWFLKSLPSRIGLLLDMPLRDIERVLYFESYVVIEGGMTNLERQQILTEEQYLDALEEFGDEFDAKMGAEAIQALLKSMDLEQECEQLREELNETNSETKRKKLTKRIKLLEAFVQSGNKPEWMILTVLPVLPPDLRPLVPLDGGRFATSDLNDLYRRVINRNNRLKRLLDLAAPDIIVRNEKRMLQEAVDALLDN
notes: also called labeled β′-fragment; IC5-labeled β′-fragment
On to B6, for which the binding result in test [18] is “binds”.

B7: HMK-His6-β′(100-309), unlabeled (pTA133) (enzyme)
chain: MARRASVHHHHHHMERMGHIELASPTAHIWFLKSLPSRIGLLLDMPLRDIERVLYFESYVVIEGGMTNLERQQILTEEQYLDALEEFGDEFDAKMGAEAIQALLKSMDLEQECEQLREELNETNSETKRKKLTKRIKLLEAFVQSGNKPEWMILTVLPVLPPDLRPLVPLDGGRFATSDLNDLYRRVINRNNRLKRLLDLAAPDIIVRNEKRMLQEAVDALLDN
notes: also called unlabeled β′-fragment
With B7, in test [19], the binding result is given as “binds”.

B8: β′1-309, untagged (pTA518) (enzyme)
chain: MKDLLKFLKAQTKTEEFDAIKIALASPDMIRSWSFGEVKKPETINYRTFKPERDGLFCARIFGPVKDYECLCGKYKRLKHRGVICEKCGVEVTQTKVRRERMGHIELASPTAHIWFLKSLPSRIGLLLDMPLRDIERVLYFESYVVIEGGMTNLERQQILTEEQYLDALEEFGDEFDAKMGAEAIQALLKSMDLEQECEQLREELNETNSETKRKKLTKRIKLLEAFVQSGNKPEWMILTVLPVLPPDLRPLVPLDGGRFATSDLNDLYRRVINRNNRLKRLLDLAAPDIIVRNEKRMLQEAVDALLDN
As to B8, the binding result in test [2] and in test [20] was “binds” in each case.

B9: His6-HMK-β′1-309 (pTA525) (enzyme)
chain: MKDLLKFLKAQTKTEEFDAIKIALASPDMIRSWSFGEVKKPETINYRTFKPERDGLFCARIFGPVKDYECLCGKYKRLKHRGVICEKCGVEVTQTKVRRERMGHIELASPTAHIWFLKSLPSRIGLLLDMPLRDIERVLYFESYVVIEGGMTNLERQQILTEEQYLDALEEFGDEFDAKMGAEAIQALLKSMDLEQECEQLREELNETNSETKRKKLTKRIKLLEAFVQSGNKPEWMILTVLPVLPPDLRPLVPLDGGRFATSDLNDLYRRVINRNNRLKRLLDLAAPDIIVRNEKRMLQEAVDALLDN
As for B9, the binding result in [21] is reported as “binds”; with Bovine serum albumin, “no binding”.
